# Source: patent US20200362024A1, “BIOLOGICAL MATERIALS AND USES THEREOF” (IMPERIAL INNOVATIONS LIMITED, priority 2009, published 2020)
# B1: FBG: recombinant fibrinogen-like globe, 227 amino acid globular domain at the C terminal of tenascin-C (protein)
# chain: GLLYPFPKDCSQAMLNGDTTSGLYTIYLNGDKAEALEVFCDMTSDGGGWIVFLRRKNGRENFYQNWKAYAAGFGDRREEFWLGLDNLNKITAQGQYELRVDLRDHGETAFAVYDKFSVGDAKTRYKLKVEGYSGTAGDSMAYHNGRSFSTFDKDTDSAITNCALSYKGAFWYRNCHRVNLMGRYGDNNHSQGVNWFHWKGHEHSIQFAEMKLRPSNFRNLEGRRKRA
# What was measured:
# RA synovial fibroblasts = assay: Cytokine synthesis in RA synovial fibroblasts stimulated with tenascin-C, FBG or LPS; type: cell-based, human; settings: 24 h; LPS 10 ng/ml
# Text: (§1) RA membrane cells (representing a mixed population of all synovial cell types) were isolated from synovial membranes obtained from patients undergoing joint replacement surgery as previously described (Brennan (1989)). RA synovial fibroblasts were isolated from the mixed population of RA membrane cells as previously described (Brennan (1989)). The study was approved by the local Trust ethics committee (Riverside NHS Research Committee), and waste tissue (synovium after joint replacement surgery) was obtained only after receiving signed informed consent from the patient and anonymyzing the tissue to protect patient identity.
# Immediately after isolation, RA membrane cells and macrophages were cultured at 1×10^5 cells/well in RPMI 1640 containing 10% (v/v) FBS and 100 U/ml (Units/ml) penicillin/streptomycin in 96-well tissue culture plates for 24 hours before stimulation. Synovial fibroblasts (used only at either passage number 2 or 3) were cultured at 1×10^4 cells/well in DMEM containing 10% (v/v) FBS and 100 U/ml penicillin/streptomycin in 96-well tissue culture plates for 24 hours before stimulation.
# (§2) Cells were incubated for 24 hours at 37° C. with the indicated doses of tenascin-C and recombinant tenascin-C fragments (1.0 μM-1.0 nM). Cells were also stimulated where indicated with LPS (1 ng/ml for human macrophages, 10 ng/ml for human fibroblasts, RA membrane cells and HEKs, 100 ng/ml for MEFS and BMDMs and 10 ng/ml for HEKS), PAM3 (10 ng/ml for human macrophages, human fibroblasts, and HEKs, 100 ng/ml for MEFs and BMDMs), murine IL-1 (5 ng/ml for MEFS) and murine TNF-α (100 ng/ml for MEFS). Unless specifically stated otherwise rough LPS was used for in vitro studies.
# Where stated, cells were pre-incubated with 10 μg/ml anti-CD14 antibody, 10 μg/ml IL1 receptor antagonist, 10 μg/ml anti-TLR2 antibody, 25 μg/ml anti-TLR4 antibody, 10 or 25 μg/ml isotype control antibody, 25 μg/ml polymyxin B, or 1 μg/ml msbB LPS, for 30 minutes at 37° C. before stimulation. Where stated, recombinant tenascin-C and FBG, and LPS were boiled for 15 minutes before addition to cells
# (§3) Supernatants were subsequently examined for the presence of the cytokines TNF-α, IL-6, and IL-8 by enzyme-linked immunosorbent assay (ELISA) according to the manufacturer's instructions. Absorbance was read on a spectrophotometric ELISA plate reader (Labsystems Multiscan Biochromic, Vantaa, Finland) and analyzed using the Ascent software program (Thermo Labsystems, Altrincham, UK).
# [1] = test system: knee joint of wild type mice; assay: Intra-articular injection of FBG into the knee joint of wild type mice; type: in vivo
# Description: Wild type mice were anesthetized by intraperitoneal injection of 150 μl of Hypnorm diluted 1:10 in sterile water and then injected with 100 ng, 1 or 3 μg FBG in 10 μl of sterile PBS into the right knee joint using a sterile 33-gauge microcannula. Control mice received an injection of 10 μl PBS alone or were not injected.
# On days 3 and 7, mice were euthanized, the knee joints were excised and fixed in 10% (volume/volume) buffered formalin, decalcified, with 10% EDTA and processed to paraffin.
# Coronal tissue sections (4 μm) were cut at 7 depths throughout the joint; 80 μm apart and stained with hematoxylin and eosin or Safranin-O to assess joint pathology.
# Inflammation (the influx of inflammatory cells into synovium (infiltrate) and the joint cavity (exudates), was graded using an arbitrary scale from 0 (no inflammation) to 3 (severe inflammation). Chondrocyte death was determined as the percentage of cartilage area containing empty lacunae in relation to the total area. Cartilage surface erosion was determined as the amount of cartilage lost in relation to the total cartilage area. Bone destruction was determined in 10 different areas of the total knee joint section. Destruction was graded on a scale of 0 (no damage) to 3 (complete loss of bone structure). Histological analysis was performed by an investigator who was blinded to the experimental groups. The mean score for each animal in an experimental group was calculated by averaging the histopathologic scores in at least 5 section depths per joint.
# MyD88 = assay: FBG induction of IL-6 in RA synovial fibroblasts infected with adenovirus expressing dominant negative MyD88; type: cell-based, human; settings: FBG 1 μM, 24 h; GFP control virus without effect
# Text: Recombinant, replication-deficient adenoviral vectors encoding wild type MyD88 (AdMyD88 wt), dominant-negative forms of MyD88 (AdMyD88dn) and the GFP control (AdGFP) were constructed in-house. A description of the synthesis of these viruses is in Andreakos (2004). All viruses used in this study are E1/E3 deleted, belong to the Ad5 serotype. Viruses were propagated in 293 human embryonic kidney cells, purified by ultracentrifugation through two cesium chloride gradients, and viral titers determined by plaque assay as previously described (Sacre (2007)).
# For adenoviral gene transfer experiments, human RA synovial fibroblasts were incubated with adenoviral vectors at a multiplicity of infection of 100, washed after 2 hours, cultured in complete medium for 24 hours, then stimulated for 24 hours, after which time supernatants were collected.
# as §3
# [2] = test system: TLR2 or TLR4 deficient embryonic fibroblasts and bone marrow derived macrophages; assay: Cytokine synthesis in embryonic fibroblasts and macrophages from TLR2 or TLR4 deficient mice; type: cell-based, mouse; settings: 24 h
# Text: Homozygous TLR2 and TLR4 deficient mice on a C57BL/6 background (an inbred strain of mice with a black coat) were obtained from B&K Universal (Hull, UK) Hoshino (1999) and Takeuchi (1999). Homozygous MyD88 deficient mice on a C57BL/6 background were provided by the Sanger Institute (Cambridge, UK). Age matched congenic inbred wild type C57B/L6 mice were obtained from Charles River (Margate, UK). For isolation of mouse embryo fibroblasts one female aged 8-10 weeks was mated with two males aged 8-10 weeks. For isolation of bone marrow derived macrophages mice were female and between 10-12 weeks of age at the time of experimentation.
# MEFs express high levels of mRNA of all 9 murine TLRs and are specifically and highly responsive to TLR ligand activation. […] MEFs were isolated from d13 embryos harvested from age-matched, pregnant female wild type, TLR2, TLR4 and null mice (as described in Todaro (1963)). Fibroblasts were cultured at 2×10^4 cells/well in DMEM containing 10% (v/v) FBS and 100 U/ml penicillin/streptomycin in 96-well tissue culture plates for 24 hours before stimulation.
# BMDMs were derived by aspirating the femurs of age matched female wild type, TLR2 and TLR4 null mice as described in Butler (1999)) and culturing the cells for 7 days in DMEM, 20% (v/v) FBS, 10 ml/L (v/v) antibiotic-antimycotic solution PSA, 50 μM Mercaptoethanol and 10 ng/ml M-CSF. Macrophages were then cultured at 1×10^5 cells/well in DMEM, 20% (v/v) FBS, 10 ml/L (v/v) antibiotic-antimycotic solution PSA, 50 μM β-Mercaptoethanol in 96-well tissue culture plates for 24 hours before stimulation.
# as §2, §3
# [3] = test system: RA synovial membrane cells; assay: Cytokine synthesis in RA synovial membrane cells stimulated with FBG; type: cell-based, human; settings: FBG 1.0-0.01 μM, 24 h, over spontaneous production
# Text: as §1
# Immediately after isolation, RA membrane cells and macrophages were cultured at 1×10^5 cells/well in RPMI 1640 containing 10% (v/v) FBS and 100 U/ml (Units/ml) penicillin/streptomycin in 96-well tissue culture plates for 24 hours before stimulation. […]
# as §3
molecule,measurement,setting,value
B1,IL-6 synthesis in RA synovial fibroblasts,RA synovial fibroblasts,stimulated
same,IL-8 synthesis in RA synovial fibroblasts,RA synovial fibroblasts,did not induce
same,joint histology,[1]; 100 ng FBG intra-articular,No inflammation or proteoglycan loss
same,joint histology,"[1]; 1 μg FBG intra-articular, 3 days","inflammatory cell infiltration (FIG. 6f), mild synovitis, pannus formation (FIG. 6g) and proteoglycan loss (FIG. 6h) was observed"
same,histological quantification: cartilage surface erosion and bone damage,"[1]; 1 μg FBG, 3 days (FIG. 6i)",modest amount
same,histological quantification: cellular infiltrate and exudate and chondrocyte death,"[1]; 1 μg FBG, 3 days (FIG. 6i)",high levels
same,joint histology,[1]; 3 μg FBG intra-articular,A similar response
same,joint inflammation,"[1]; intra-articular 100 ng, 1 or 3 μg",transient and dose dependent stimulation of joint inflammation
same,induction of IL-6 in synovial fibroblasts expressing dominant negative MyD88,MyD88,abolished
same,cytokine synthesis in cells from TLR2 deficient mice,[2],unaffected
same,cytokine synthesis in cells from TLR4 deficient mice,[2],does not stimulate
same,"synthesis of IL-6, IL-8 and TNF-α in RA synovial membranes",[3],further enhanced
